The record followed here is patent US20220218748.

The series deals with human polyclonal IgG.

B1: membrane-bound IdeS (IdeS-tm) (protein)
chain 1: DSFSANQEIRYSEVTPYHVTSVWTKGVTPPAKFTQGEDVFHAPYVANQGWYDITKTFNGKDDLLCGAATAGNMLHWWFDQNKEKIEAYLKKHPDKQKIMFGDQELLDVRKVINTKGDQTNSELFNYFRDKAFPGLSARRIGVMPDLVLDMFINGYYLNVYKTQTTDVNRTYQEKDRRGGIFDAVFTRGDQSKLLTSRHDFKEKNLKEISDLIKKELTEGKALGLSHTYANVRINHVINLWGADFDSNGNLKAIYVTDSDSNASIGMKKYFVGVNSAGKVAISAKEIKEDNIGAQVLGLFTLSTGQDSWNQTN
chain 2: not shown
Consider B1, for which the “cleavage of IgG, SDS-PAGE with Coomassie stain and anti-human Fc blot” value was “Cleaved Ig appeared within 5 min and increased over time”.

B2: secreted IdeS (IdeS-sec) (protein)
chain: DSFSANQEIRYSEVTPYHVTSVWTKGVTPPAKFTQGEDVFHAPYVANQGWYDITKTFNGKDDLLCGAATAGNMLHWWFDQNKEKIEAYLKKHPDKQKIMFGDQELLDVRKVINTKGDQTNSELFNYFRDKAFPGLSARRIGVMPDLVLDMFINGYYLNVYKTQTTDVNRTYQEKDRRGGIFDAVFTRGDQSKLLTSRHDFKEKNLKEISDLIKKELTEGKALGLSHTYANVRINHVINLWGADFDSNGNLKAIYVTDSDSNASIGMKKYFVGVNSAGKVAISAKEIKEDNIGAQVLGLFTLSTGQDSWNQTN
As to B2, the “cleavage ELISA” value is reported as “IdeS-sec efficiently cleaved human polyclonal IgG at different time points”.
